# T1: human TNFR2-His (human, UniProt P20333 23-257)
# T1 construct: not shown: His tag
# T1 sequence: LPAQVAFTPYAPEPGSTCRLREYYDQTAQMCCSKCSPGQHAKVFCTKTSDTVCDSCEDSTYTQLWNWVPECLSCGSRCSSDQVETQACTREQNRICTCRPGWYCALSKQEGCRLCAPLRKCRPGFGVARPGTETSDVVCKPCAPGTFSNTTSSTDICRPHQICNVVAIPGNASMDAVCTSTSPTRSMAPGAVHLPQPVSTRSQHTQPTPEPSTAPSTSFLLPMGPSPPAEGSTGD
# T2: human TNFR2 on GloResponse NF-kB-RE-luc2p HEK293 reporter cells (human, UniProt P20333 23-461)
# T2 sequence: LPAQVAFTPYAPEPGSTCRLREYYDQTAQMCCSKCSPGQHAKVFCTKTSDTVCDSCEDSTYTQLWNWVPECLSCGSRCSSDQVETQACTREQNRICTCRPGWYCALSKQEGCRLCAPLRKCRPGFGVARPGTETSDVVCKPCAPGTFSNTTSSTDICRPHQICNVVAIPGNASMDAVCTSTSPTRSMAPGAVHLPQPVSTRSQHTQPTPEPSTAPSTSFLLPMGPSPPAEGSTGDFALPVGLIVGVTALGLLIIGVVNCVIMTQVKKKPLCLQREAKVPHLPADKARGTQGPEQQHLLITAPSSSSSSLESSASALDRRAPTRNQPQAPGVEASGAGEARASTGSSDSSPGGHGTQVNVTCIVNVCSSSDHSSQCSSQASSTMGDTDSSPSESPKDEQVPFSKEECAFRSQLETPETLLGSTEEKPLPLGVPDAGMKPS
# Tests used:
# [1] = target: his-tagged mouse TNFR2 (mouse) (UniProt P25119); assay: blocking ELISA: His-tagged mouse TNFR2 coated, antibody titrated, then recombinant mouse TNF-alpha added and detected; OD450 normalized
# human TNFR2-His = target: T1, human TNFR2-His; assay: BLI, antibody on anti-Human Fc Capture (AHC) biosensors, human TNFR2-His in solution
# Method: Binding affinities for human TNFR2 of the affinity-matured anti-human TNFR2 antibodies generated in Example 30 were measured by bio-layer interferometry (BLI). Briefly, a BLI kinetic assay was performed using anti-Human Fc Capture (AHC) biosensors (ForteBio) under the following conditions: (a) loading of antibody (4 μg/mL) for 60 sec, (b) baseline for 60 sec, (d) association with human TNFR2-His ([…]) for 300 sec, and (e) dissociation for 300 sec.
# [2] = target: T2, human TNFR2 on GloResponse …; assay: cell-based or functional assay
# his-tagged mouse TNFR2 (mouse), sequence (P25119 23-258 limits assumed): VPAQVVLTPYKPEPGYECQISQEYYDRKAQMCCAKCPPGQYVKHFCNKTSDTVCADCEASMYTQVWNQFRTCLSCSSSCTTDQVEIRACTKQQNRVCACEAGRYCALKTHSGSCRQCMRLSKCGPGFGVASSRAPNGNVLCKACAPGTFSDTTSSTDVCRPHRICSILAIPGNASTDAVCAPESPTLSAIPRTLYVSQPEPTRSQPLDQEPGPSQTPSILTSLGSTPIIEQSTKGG
IC50 (read off the curve) [1] [nM],Kd (human TNFR2-His) [nM],EC50 in stimulating NF-kB activity [2] [µg/mL],EC50 of induced NF-kB activity [2] [µg/mL],Molecule
2,–,–,–,54.7 (Bioxcell) (antibody)
–,0.689,8.6,–,"ABV2 chimera (ABV2c) (antibody, human IgG1, kappa, V domains shown, VH and VL of mouse ABV2 fused with human IgG1 and human kappa constant regions; also called ABVc; chimeric anti-human TNFR2 antibody) VH: QIQLVQSGPELKKPGETVKISCKASGYTFTTFGMSWVKQAPGKGLKWMGWINTYSGVPTYADDFKGRFAFSLETSASTAYLQINNLKNEDTATYFCARRSNFAYWGQGTLVTVSA VL: DIVLTQSPASLAVSLGQRATISCRASESVDSSGNSFMHWYQQKAGQSFKLLIYRASNLESGIPARFSGSGSRTDFTLTINPVEADDVATYYCQQSNEDPWTFGGGTKLEIKR"
–,0.3,10.8,–,"ABV2.7 (antibody, human IgG1, kappa, V domains shown) VH: QVQLVQSGSELKKPGASVKVSCKASGYTFTTFGMSWVRQAPGQGLEWMGWINTYSGVPTYAQGFTGRFVFSLDTSVSTAYLQISSLKAEDTAVYFCARRSNFAYWGQGTLVTVSS VL: DIVLTQSPDSLAVSLGERATINCRASESLTASGNSFMHWYQQKPGQPPKLLIYRASNLESGVPDRFSGSGSRTDFTLTISSLQAEDVAVYYCQQSRHVNWTFGGGTKVEIKR"
–,4.42,–,1.6,"ABV2.1 (ABV2 hum #2 HD3) (antibody, V domains shown, humanized ABV2; also called parental antibody) VH: QVQLVQSGSELKKPGASVKVSCKASGYTFTTFGMSWVRQAPGQGLEWMGWINTYSGVPTYAQGFTGRFVFSLDTSVSTAYLQISSLKAEDTAVYFCARRSNFAYWGQGTLVTVSS VL: DIVLTQSPDSLAVSLGERATINCRASESVDSSGNSFMHWYQQKPGQPPKLLIYRASNLESGVPDRFSGSGSRTDFTLTISSLQAEDVAVYYCQQSNEDPWTFGGGTKVEIK"
–,1.59,4.1,–,"ABV2.13 (antibody, human IgG1, kappa, V domains shown) VH: QVQLVQSGSELKKPGASVKVSCKASGYTFTTFGMSWVRQAPGQGLEWMGWINTYSGVPHYAQGFTGRFVFSLDTSVSTAYLQISSLKAEDTAVYFCARRSNFAYWGQGTLVTVSS VL: DIVLTQSPDSLAVSLGERATINCRASQTVDSSGNSFMHWYQQKPGQPPKLLIYLGNRLESGVPDRFSGSGSRTDFTLTISSLQAEDVAVYYCQQSNEDPWTFGGGTKVEIKR"
–,0.158,9.3,5.3,"ABV2.15 (antibody, human IgG1, kappa, V domains shown) VH: QVQLVQSGSELKKPGASVKVSCKASGYTFTTFGMSWVRQAPGQGLEWMGWINTYSGVPHYAQGFTGRFVFSLDTSVSTAYLQISSLKAEDTAVYFCARRSNFAYWGQGTLVTVSS VL: DIVLTQSPDSLAVSLGERATINCRASESLTASGNSFMHWYQQKPGQPPKLLIYRASNLESGVPDRFSGSGSRTDFTLTISSLQAEDVAVYYCQQSRHVNWTFGGGTKVEIKR"

# Reference: patent publication US20210371537A1 (MERRIMACK PHARMACEUTICALS, published 2021)
